Test [1] deals with human NT5E-Biotin (human) (UniProt P21589). The test is described as follows: ELISA, NT5E-biotin on streptavidin. (In an ELISA, binding on a coated surface is turned into a signal by an enzyme label.)
For test [2] the target is unchanged. The test is described as follows: ELISA, NT5E-biotin on streptavidin; antibody 0.333 ug/mL.
For test [3] the target is unchanged. The test is described as follows: ELISA, NT5E-biotin on streptavidin; antibody 0.333 ug/mL diluted 1:3.
The target is the same in test [4]. The test is described as follows: ELISA, NT5E-biotin on streptavidin; antibody 0.333 ug/mL diluted 1:9.
For test [5] the target is unchanged. The test is described as follows: ELISA, NT5E-biotin on streptavidin; antibody 0.333 ug/mL diluted 1:27.
For test [6] the target is unchanged. The test is described as follows: ELISA, NT5E-biotin on streptavidin; antibody 0.333 ug/mL diluted 1:81.
For test [7] the target is unchanged. The test is described as follows: ELISA, NT5E-biotin on streptavidin; antibody 0.333 ug/mL diluted 1:243.
Test [8] shares this target. The test is described as follows: ELISA, NT5E-biotin on streptavidin; antibody 0.333 ug/mL diluted 1:729.
The target of test [9] is human NT5E(1-552)-his (human) (UniProt P21589). The test is described as follows: BLI (Fortebio), antibody on Protein A sensor, NT5E(1-552)-his 3.125-200 nM, 37 C. For orientation: BLI is a label-free optical method that tracks binding on a fibre tip over time.
Test [10] has as its target PD-1-mFc (human) (UniProt Q15116). The test is described as follows: ELISA, PD-1-mFc coated; antibody 1 ug/mL.
Test [11] has the same target. The test is described as follows: ELISA, PD-1-mFc coated; antibody 1 ug/mL diluted 1:3.
Test [12] has the same target. The test is described as follows: ELISA, PD-1-mFc coated; antibody 1 ug/mL diluted 1:9.
Test [13] has the same target. The test is described as follows: ELISA, PD-1-mFc coated; antibody 1 ug/mL diluted 1:27.
For test [14] the target is unchanged. The test is described as follows: ELISA, PD-1-mFc coated; antibody 1 ug/mL diluted 1:81.
The target is the same in test [15]. The test is described as follows: ELISA, PD-1-mFc coated; antibody 1 ug/mL diluted 1:243.
The target is the same in test [16]. The test is described as follows: ELISA, PD-1-mFc coated; antibody 1 ug/mL diluted 1:729.
In test [17] the target is human PD-1-mFc-biotin (human) (UniProt Q15116). The test is described as follows: competitive ELISA, competitor coated PD-L1-mFc; antibody 5 ug/mL.
Test [18] has the same target. The test is described as follows: competitive ELISA, blocking of PD-1-mFc-biotin binding to coated PD-L1-mFc.
For test [19] the target is unchanged. The test is described as follows: competitive ELISA, competitor coated PD-L1-mFc; antibody 5 ug/mL diluted 1:3.
For test [20] the target is unchanged. The test is described as follows: competitive ELISA, competitor coated PD-L1-mFc; antibody 5 ug/mL diluted 1:9.
Test [21] shares this target. The test is described as follows: competitive ELISA, competitor coated PD-L1-mFc; antibody 5 ug/mL diluted 1:27.
The target is the same in test [22]. The test is described as follows: competitive ELISA, competitor coated PD-L1-mFc; antibody 5 ug/mL diluted 1:81.
The target is the same in test [23]. The test is described as follows: competitive ELISA, competitor coated PD-L1-mFc; antibody 5 ug/mL diluted 1:243.
The target is the same in test [24]. The test is described as follows: competitive ELISA, competitor coated PD-L1-mFc; antibody 5 ug/mL diluted 1:729.

The values below come from patent publication US20230151111A1.

Where “and” joins values, the source holds several entries; their conditions need not be identical. Equal entries are not always repeated.

Chain of human NT5E(1-552)-his (human) (P21589 27-552 limits assumed): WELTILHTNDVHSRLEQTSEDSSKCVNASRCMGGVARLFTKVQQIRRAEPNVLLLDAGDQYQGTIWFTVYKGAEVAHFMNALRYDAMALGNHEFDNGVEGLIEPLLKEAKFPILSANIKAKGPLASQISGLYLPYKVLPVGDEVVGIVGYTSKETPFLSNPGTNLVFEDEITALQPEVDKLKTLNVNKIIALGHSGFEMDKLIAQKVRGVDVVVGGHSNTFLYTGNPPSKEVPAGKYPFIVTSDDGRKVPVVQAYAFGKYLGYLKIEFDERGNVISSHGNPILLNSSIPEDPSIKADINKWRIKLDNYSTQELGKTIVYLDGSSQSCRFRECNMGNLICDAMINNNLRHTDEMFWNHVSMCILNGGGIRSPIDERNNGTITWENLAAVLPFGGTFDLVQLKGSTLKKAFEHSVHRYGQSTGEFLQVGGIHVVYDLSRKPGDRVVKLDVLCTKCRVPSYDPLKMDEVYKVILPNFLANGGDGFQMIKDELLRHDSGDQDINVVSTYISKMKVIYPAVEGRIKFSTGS
Chain of human NT5E-Biotin (human) (P21589 27-552 limits assumed, form in doubt): as the sequence (P21589 27-552 limits assumed) above
Chain of PD-1-mFc (human) (Q15116 other isoform, or with tags, fused parts or gaps limits assumed): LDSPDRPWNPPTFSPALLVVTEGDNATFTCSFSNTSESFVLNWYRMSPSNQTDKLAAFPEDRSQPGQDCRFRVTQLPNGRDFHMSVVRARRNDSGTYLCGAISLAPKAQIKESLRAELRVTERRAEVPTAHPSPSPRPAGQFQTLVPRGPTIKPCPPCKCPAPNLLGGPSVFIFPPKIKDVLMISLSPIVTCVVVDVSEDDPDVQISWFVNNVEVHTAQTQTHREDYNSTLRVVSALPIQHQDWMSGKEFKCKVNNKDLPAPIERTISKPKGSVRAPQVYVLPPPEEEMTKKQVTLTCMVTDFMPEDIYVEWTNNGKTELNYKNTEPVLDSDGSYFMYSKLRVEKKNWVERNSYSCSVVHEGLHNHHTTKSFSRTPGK
Chain of human PD-1-mFc-biotin (human) (Q15116 other isoform, or with tags, fused parts or gaps limits assumed): as above

Usually EC50 stands for the concentration that produces a half-maximal response. The term Kd denotes the free concentration of one partner at which half of the binding sites on the other are occupied at equilibrium, for simple one-to-one binding. Low values mean a tighter complex, high ones a looser complex. The term koff denotes the rate constant with which the complex falls apart. By kon is commonly meant the second-order rate constant of association. Lower therefore signals slow association. MEDI9447 (antibody): the EC50 in test [1] came out at 0.042 nM. The OD450 in test [2] is 2.46 OD and 2.57 OD; in test [3] it was 2.43 OD and 2.53 OD; in test [4] it was 2.22 OD and 2.35 OD; in test [5], 1.73 OD and 1.81 OD; in test [6], 1.09 OD and 1.17 OD; in test [7], 0.547 OD and 0.587 OD. The OD450 in [8] is 0.288 OD and 0.305 OD. Moreover, in [9], the Kd is 0.104 nM. In addition, in test [9], the koff stood at 2.44e-05 s⁻¹. Moreover, the kon in test [9] stood at 234000 M⁻¹ s⁻¹.
Take nivolumab (antibody): the OD450 with PD-1-mFc (human) [10] was 2.39 OD and 2.47 OD; in the test with PD-1-mFc (human) [11], 2.44 OD; with PD-1-mFc (human) [12], 2.52 OD and 2.57 OD; in the test with PD-1-mFc (human) [13] it was 2.2 OD and 2.22 OD; with PD-1-mFc (human) [14], 1.71 OD; in the test with PD-1-mFc (human) [15] it was 0.98 OD. The OD450 with PD-1-mFc (human) [16] is 0.521 OD and 0.498 OD; in test [17], 0.057 OD; in test [19], 0.075 OD and 0.076 OD; in test [20], 0.107 OD and 0.1 OD; in test [21] it was 1.01 OD and 0.875 OD; in [22] it was 1.24 OD and 1.15 OD. Moreover, the OD450 is 1.39 OD and 1.21 OD in test [23]; 1.35 OD and 1.28 OD in test [24]. In addition, the EC50 in test [18] came to 1.7 nM.
